From the supplement of paper PMC10126150
± gives the standard deviation of the averaged measurements.

tested on: ATP; assay: switch fluorescence ratio, 500 uM ATP over buffer (Cy3 cluster intensity, sum of 5 cycles each) (fold (ratio)); higher = stronger signal-on switching upon ATP binding; sequences stand for … in TCGTCGGCAGCGTCAGATGTGTATAAGAGACAGTTTTTTTTTTTTTTTTTTTTTTTTT…TC; conditions: aptamer strand: ATP DNA aptamer (quencher-CACCTGGGGGAGTATTGCGGAGGAAGG + anchor), 100 nM annealed; ATP concentration: 500 uM
How it was run: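 Exposure to 500 uM ATP lasted 15 min at 22 °C before imaging, and a selection-buffer image was taken beforehand, for Cy3-labelled switching-strand clusters on a modified Illumina MiSeq flow-cell annealed to 100 nM quencher-labelled ATP aptamer. Five buffer/ATP cycles were run with NaOH stripping and re-annealing between them. The fluorescence ratio per cluster is summed target-cycle over summed buffer-cycle Cy3 intensity, averaged per switch-domain sequence. Clusters outside 100-1000 RFU were excluded.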

Sequence	switch fluorescence ratio
TTTTCCCGGG	1.13 ± 0.15
GATTTTGTGG	0.971 ± 0.02
AGCCTTTGTC	0.982 ± 0.041
GGGGGATTTG	0.998 ± 0.013
CAGGTGAGAC	1.31 ± 0.04
GCGTCAAGAT	1.04 ± 0.042
CAACTGTTTT	1.04 ± 0.1
ATGGAAGGGT	0.988 ± 0.052
GGGGAACGGC	0.963 ± 0.036
ATTTTAAGTT	0.99 ± 0.034
TAGCCGGGGA	1.01 ± 0.032
AAGCGGAGCC	0.966 ± 0.023
ATTGGGCAGG	1.04 ± 0.017
AAGTACTTTT	1.2 ± 0.055
TTGATAATAG	1 ± 0.024
CGTAGTGGCT	1.04 ± 0.04
GTATTAAAGC	1.024 ± 0.0052
ACGGTAGAAA	1.01 ± 0.012
GAGAAATGAT	0.984 ± 0.0087
TATACGACTC	1.09 ± 0.068
GGACTTTCGT	0.993 ± 0.015
GGTTATTGCT	1.02 ± 0.0033
AGGTGTGGCT	1 ± 0.048
TATGACGTTA	1 ± 0.048
CGGGCTGGAG	1.09 ± 0.079

Sequence	switch fluorescence ratio
ATCTATGGTT	0.9669 ± 0.0036
GCTGATGTTC	1.0082 ± 0.001
CTTAGTACGG	1.01 ± 0.054
TCGTTGGGAC	0.979 ± 0.021
ATCTCAGTGT	0.971 ± 0.04
TTGTGAATTT	1.28 ± 0.43
GCGCATTGGT	1.06 ± 0.068
GACGGACAGT	1.13 ± 0.076
CAGAGGGCAG	1.02 ± 0.047
ATAATGTAGC	1.04 ± 0.036
GTGCTGGTGG	0.9839 ± 0.0043
GGGGACTTGG	1 ± 0.027
TTCTTACTTT	1.48 ± 0.64
TTCCCACTAT	1.023 ± 0.0078
GACATAGGGT	0.994 ± 0.025
GTTTTTGCGG	0.9784 ± 0.0044
CGTTTCACTA	0.9736 ± 0.0019
ATTTTACAGC	1.03 ± 0.0074
GCCATTAGAC	1.04 ± 0.049
TTGTTTTCCT	1.02 ± 0.011
TTAAGCATGT	1.01 ± 0.017
TTATTTATTC	1.03 ± 0.037
CAACGCGCGG	0.995 ± 0.045
GTGGGGGTTG	0.976 ± 0.043
GTTTCTGGGG	0.971 ± 0.052

Sequence	switch fluorescence ratio
TCGGTCCCGG	1 ± 0.065
CCAGTGATGT	1.04 ± 0.024
GAGATAAGCC	1.03 ± 0.022
AAGGGACAAA	1.04 ± 0.014
CGATGGTACG	0.946 ± 0.05
ACTGATGTAC	1.09 ± 0.012
GGGGTATGCC	1.01 ± 0.027
TAATTAATAC	1.08 ± 0.017
GCACGAGGGG	0.979 ± 0.047
ATCGATTGAT	1.02 ± 0.011
TGGCTTCGGC	0.9979 ± 0.0053
AAAGGCTTGG	0.992 ± 0.015
AGATTGGTTC	0.9953 ± 0.0044
GGTCTGGGGA	1.024 ± 0.0073
ACCTAGTTTT	1.011 ± 0.0078
TTCCATTGTA	1.02 ± 0.031
TAAGTGCCAA	1.01 ± 0.032
GGGTGAGATA	1.07 ± 0.011
TTGGGTTGTG	1.01 ± 0.041
TCATATAATA	1.01 ± 0.018
CACTACGAAT	1.051 ± 0.007
TGGCGCCATT	1 ± 0.072
CGGGGGTGA	1.014 ± 0.0059
TTAAAACGGT	1.21 ± 0.31
ATCGTGCCGT	1.01 ± 0.041

Sequence	switch fluorescence ratio
ATCCGCGTAG	2.17 ± 0.017
AATTCTTTTG	1.01 ± 0.043
GGGGGGCAGA	1 ± 0.029
TGCAATGCAC	1.558 ± 0.0038
TATATTTACC	1.04 ± 0.044
CGGCTTTTTG	0.991 ± 0.034
GAGGTATTAT	0.9688 ± 0.0074
GGACATTGG	1.03 ± 0.02
TTTATAGACT	1.02 ± 0.0016
AGGCAGGTTG	0.985 ± 0.019
GATGTTTGAG	0.991 ± 0.017
GCGGGTATGT	1.04 ± 0.023
TATGGTTTCC	1.03 ± 0.05
AGAAAGAGGT	1.011 ± 0.0096
GGCTAGACGT	1.031 ± 0.0023
TGGGGAGGAG	0.995 ± 0.017
TTCTGGTTTG	0.975 ± 0.043
GAGAATAGAG	0.989 ± 0.022
ATTATCGGTA	0.974 ± 0.058
TCCAATTTGA	0.998 ± 0.012
TTCATTAGGA	1.01 ± 0.029
GCCGATAGGT	1.08 ± 0.12
GGTAATAGGG	0.996 ± 0.036
ATAAGCATTA	1.05 ± 0.11
ACTTGTAATT	0.997 ± 0.026

Sequence	switch fluorescence ratio
GGCTGGCATT	1.11 ± 0.15
TTGGAAGGGC	1.012 ± 0.0063
TATTGCTTTC	1.03 ± 0.018
CAGGTTGGAG	1.15 ± 0.24
TAGGGCGGAG	0.957 ± 0.025
CTTGAGTGTG	0.9827 ± 0.006
TCTGCTCTGG	0.983 ± 0.03
CGGACTGTCA	1.02 ± 0.016
GTTTTTAAGG	1.02 ± 0.032
TATTGTTATG	1 ± 0.028
GGTTCAGGCT	0.977 ± 0.025
CCGTAAGCAG	1.96 ± 0.034
CGTTTCGAAT	0.96 ± 0.027
GAAGAAAACT	1.08 ± 0.014
GTTTATTGTC	1.04 ± 0.037
TGCTATCATT	1.08 ± 0.12
TACTCCATAT	1.14 ± 0.019
GAGGGATGTT	1.01 ± 0.0092
GCCGAGGGGA	1.05 ± 0.025
ATGGTTTGGT	0.997 ± 0.024
ACGGCAGAGG	1.09 ± 0.02
GTCATACCTT	1.2 ± 0.1
TCGGAGGGGC	1.03 ± 0.013
CTTGAATTTC	0.987 ± 0.017
AGGGGAAAAT	0.996 ± 0.028

Sequence	switch fluorescence ratio
AATGGGCGGA	0.995 ± 0.017
TTAGAAGGTT	1 ± 0.026
TTAATGGGGG	1.06 ± 0.25
GGTGATGCGC	0.978 ± 0.034
ATCGGTTTTG	1.01 ± 0.021
AATATGTCTG	0.937 ± 0.06
TTGGGCTGGG	1.01 ± 0.026
AGTTTTTATA	1.002 ± 0.0012
ACGGGGTCAC	1.026 ± 0.0017
CAGGGGTATA	1.02 ± 0.024
GCGTAACTTC	1.01 ± 0.044
TTTTTATTAG	0.983 ± 0.027
AATTGCGTCA	0.9608 ± 0.0066
GGGCTTTTTC	1.02 ± 0.034
GCGGTCCACG	1.02 ± 0.022
GACAAGGAGG	1.02 ± 0.028
TTGGACGCCG	1.07 ± 0.041
GAATTCTTGA	0.9532 ± 0.0043
AGAGGCTTGG	0.997 ± 0.014
ATTTCGCCCG	1.07 ± 0.037
TTAGCCTCTT	0.996 ± 0.032
GTTTGAAGCG	1 ± 0.054
AGGCGCTCTG	0.99 ± 0.0045
ACTGGTTGGG	0.966 ± 0.018
TTCCTTAGTC	1.019 ± 0.0045

Sequence	switch fluorescence ratio
GTATGGTAGG	1.03 ± 0.05
ATTAGACAGC	1.01 ± 0.032
ACAGGATGTT	1.01 ± 0.027
ATTTGTCCAA	0.993 ± 0.028
TTTGTTCTT	1 ± 0.014
TAGATTTTTA	0.987 ± 0.028
TTTGGCTTTG	1.02 ± 0.05
AGGGGGGTTA	0.984 ± 0.04
ATTACTTTTC	1.006 ± 0.0057
GGCCGTATCT	1.03 ± 0.044
TTGTACTTGG	1.04 ± 0.072
AGTTGATGGG	0.978 ± 0.049
GGGAATGCTA	0.9999 ± 0.0068
TGGTGTGACA	0.995 ± 0.065
TTTGCAAGGG	1.81 ± 1.2
ACTTATTCGG	1.02 ± 0.019
AATTTGGGGC	0.982 ± 0.022
TTTTCGATTT	1.42 ± 1
ATATAGGATT	0.9893 ± 0.0068
ATCGAGCATG	1.03 ± 0.051
GGGCTGAAGG	1.004 ± 0.01
TTCAGGATGG	1.02 ± 0.017
TGTTCCGCCC	2.012 ± 0.0024
TACGGGGTAA	0.995 ± 0.022
TTAAGGGGAT	1 ± 0.032

Sequence	switch fluorescence ratio
ATAGGAGAGT	1.003 ± 0.0091
CCAGCATAAT	1.41 ± 0.05
TTGACGGTGA	1.06 ± 0.033
TCCCAACGGG	1.011 ± 0.0036
GGTATCTTAG	0.9857 ± 0.0087
CGACGTGATG	1.227 ± 0.0082
AATTTTGTGG	1.03 ± 0.014
TAACAGGTAG	1.05 ± 0.035
GTTGTTATAG	1.02 ± 0.039
TAATTAACTT	1.09 ± 0.12
CCAATTTTAC	1.39 ± 0.055
GGGAGGGATG	1.02 ± 0.024
CTAGTAGAAG	1.01 ± 0.016
TTTTTTTTC	1.045 ± 0.0071
AAGGCGCTCT	0.997 ± 0.014
GTTAATATAG	0.992 ± 0.035
GCGTAATCTT	0.988 ± 0.035
AAATGGGTAG	0.9692 ± 0.0062
CCCAGGCGGA	1.65 ± 0.78
GGCGTTGTTC	0.984 ± 0.034
CTAATAGTT	1 ± 0.048
TGGGGACGTG	1.013 ± 0.0047
AGATTACGAG	1.02 ± 0.026
CAGTCGACGG	0.993 ± 0.011
GTTTTTTTGC	0.9766 ± 0.006
